# Experimental data from US20260265391A1 (BIOTHEUS, published 2026).
# Positions count from the first letter of the chain named.
# B1: CP870893-IgG2 (antibody, V domains shown)
# VH: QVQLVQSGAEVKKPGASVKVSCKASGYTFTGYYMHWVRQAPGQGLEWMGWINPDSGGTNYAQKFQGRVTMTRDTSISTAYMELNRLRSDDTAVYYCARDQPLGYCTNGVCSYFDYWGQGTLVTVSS
# VL: DIQMTQSPSSVSASVGDRVTITCRASQGIYSWLAWYQQKPGKAPNLLIYTASTLQSGVPSRFSGSGSGTDFTLTISSLQPEDFATYYCQQANIFPLTFGGGTKVEIKR
# notes: Control antibody; also called CP870893-IgG2-wt; CP-870893-G2-WT
# B2: ADI-47720 (antibody, human IgG1, kappa, V domains shown)
# VH: EVQLVESGGGLVQPGRSLRLSCAASGFTFDDYAMHWVRQAPGKGLEWVSGISWSSGSIGYADSVKGRFTISRDNAKNSLYLQMNSLRAEDTAVYYCAKDPTATTGARGYFDLWGRGTLVTVSS
# VL: B1 VL with Y30S, N45K, T50A, T53S, A91R, N92A, I93S, L96P
# B3: ADI-55142 (antibody, human IgG1, kappa, V domains shown)
# VH: QVQLVESGGGVVQPGRSLRLSCAASGFTFEKYGMHWVRQAPGKGLEWVAVISYEGEKKYYADSVKGRFTISRDNSKNTLYLQMNSLRAEDTAVYYCARDTSRGHDIWGQGTMVTVSS
# VL: EIVLTQSPGTLSLSPGERATLSCRASQSVSYSYLAWYQQKPGQAPRLLIYGASSRANGIPDRFSGSGSGTDFTLTISRLEPEDFAVYYCSDYADYPPFTFGGGTKVEIKR
# B4: ADI-55147 (antibody, human IgG1, kappa, V domains shown)
# VH: B3 VH with E30G, K31S, E56V
# VL: B3 VL with S32D, S54A, S90Q, D91Q
# B5: ADI-55145 (antibody, human IgG1, kappa, V domains shown)
# VH: B3 VH with E56T, K57S
# VL: B3 VL with R24Q, S32N, A56N, S90Q, D91Q, A93S
# How the values were obtained:
# [1] = biological target: T1, human CD40 overexpressed on cells (human, UniProt P25942 21-277); experiment: cell-based or functional assay
# T1 sequence (P25942 21-277 limits assumed): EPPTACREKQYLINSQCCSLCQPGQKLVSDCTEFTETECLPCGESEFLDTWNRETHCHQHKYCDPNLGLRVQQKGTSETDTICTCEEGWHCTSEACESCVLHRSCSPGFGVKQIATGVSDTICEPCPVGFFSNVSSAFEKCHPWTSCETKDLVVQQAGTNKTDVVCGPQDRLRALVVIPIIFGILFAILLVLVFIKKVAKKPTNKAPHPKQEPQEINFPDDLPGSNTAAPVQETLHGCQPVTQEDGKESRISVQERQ
# [2] = biological target: T1, human CD40 overexpressed on cells; experiment: cell-based or functional assay; remark: listed apart in the source
# [3] = biological target: T1, human CD40 overexpressed on cells; experiment: flow cytometry on CHO-S cells overexpressing human CD40
# Method: (§1) Specifically, by transfecting the pCHO1.0 vector (Invitrogen) with the human/cynomolgus CD40 cDNA cloned into the MCS and followed by applying pressure selection, CHO-S cells overexpressing human/cynomolgus CD40 were generated. The expanded CD40 overexpressing cells were adjusted to the appropriate cell density and plated on 96-well flow plate. After centrifugation, the cells were incubated with a gradient-diluted sample at 4° C. for 30 minutes. and the cells were then washed twice with PBS, and followed by incubation with a fluorescent secondary antibody diluted to the appropriate concentration, at 4° C. for 30 min. Following two washes with PBS, cells were resuspended in PBS and fluorescent signals were detection on the CytoFlex flow cytometer to calculate the corresponding MFI.
# [4] = biological target: T2, cynomolgus CD40 overexpressed on CHO-S cells (cynomolgus, UniProt G7PG38 21-278); experiment: flow cytometry on CHO-S cells overexpressing cynomolgus CD40
# T2 construct: whole, on cells; also called cynomolgus CD40 expressing CHO cells
# Method: as §1
# [5] = biological target: T1, human CD40 overexpressed on cells; experiment: cell-based or functional assay; remark: listed apart in the source
# [6] = biological target: T3, human CD40-Fc protein (human, UniProt P25942 21-193); experiment: BLI (ForteBio), IgG on AHQ sensor, 100 nM CD40-Fc in solution, bivalent, 1:1 model
# T3 construct: also called human CD40-Fc fusion protein; CD40-Fc antigen; not shown: Fc part
# T3 sequence (P25942 21-193 limits assumed): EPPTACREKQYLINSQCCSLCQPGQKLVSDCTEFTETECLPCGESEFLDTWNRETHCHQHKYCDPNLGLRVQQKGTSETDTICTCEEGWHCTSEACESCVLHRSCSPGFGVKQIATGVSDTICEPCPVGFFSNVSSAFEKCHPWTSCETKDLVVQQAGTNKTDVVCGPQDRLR
# Method: (§2) The antibody-loaded sensor was further incubated in a high concentration of irrelevant intact antibody solution for 10 minutes to saturate and block the Fc binding sites on the AHQ sensor. The blocked sensor was then incubated with 100 nM CD40-Fc antigen until a plateau was reached, and then the sensor was transferred to the analysis buffer for at least 2 minutes for dissociation rate measurement. Kinetic analysis was performed using a 1:1 binding model.
# [7] = biological target: T4, cynomolgus CD40-Fc protein (cynomolgus, UniProt G7PG38 21-193); experiment: as above
# T4 construct: not shown: Fc part
# Method: as §2
Binder,EC50 of the CD40-NFkB reporter gene assay (with beads cross-linking) [1] [nM],"Signal amplification with bead crosslinking (NFkB-Luc2P reporter, U2OS cells overexpressing human CD40) [2]","Signal amplification without bead crosslinking (NFkB-Luc2P reporter, U2OS cells overexpressing human CD40) [2]",EC50 [3] [nM],EC50 [4] [nM],EC50 of the CD40-NFkB reporter gene assay (without beads cross-linking) [5] [nM],Kd [6] [nM],Kd [7] [nM]
B1,181,14.8,4.7,8,7.28,131,,
B2,304,11.5,1.3,4.82,5.54,~1070,9.32,6.07
B3,,,,7.69,6.32,,0.146,0.193
B4,,,,7.49,4.49,,0.139,0.208
B5,,,,5.26,6.66,,0.169,0.226
